Laboratory results taken from patent US12410262B2, “Peptide conjugates of cytotoxins as therapeutics” (Cybrexa 2, Inc., priority 2019, dated 2025).

Key:
[1] = test system: HCT116; assay: cells; type: cell-based, human; details: 96 h
Experimental: Cells were plated in 96 well black walled-clear bottom plates (Griener), DLD-1 WT cells at 2500 cells per well, FaDu, and HeLa cells at 5000 cells per well, and HCT116 at 3000 cells per well, in growth media containing 10% FBS. Cells were allowed to adhere at room temperature for 60 minutes before returning to a 37 C, 5% CO2 incubator. After 24 hours, media was removed and replaced with fresh growth media containing various drug concentrations. Each drug concentration was added in triplicate. Non-drug treated controls contained growth media only. Cells were returned to the incubator. Ninety-six hours after addition of drug, cells were fixed with 4% paraformaldehyde for 20 minutes and stained with Hoechst at 1 ug/mL. The plates were imaged on a Cytation 5 auto imager (BioTek) and cells were counted using CellProfiler (http://cellprofiler.org). The percent cell growth delay was calculated and data plotted using GraphPad Prism

[2] = Glutathione cleavage study; type: in vitro ADME; details: for remaining at 4 h, 100 µM / remaining at 24 h, 100 µM: Tris buffer with 10 mM glutathione, Glutathione Challenge (10 mM), 100 μM conjugate, Tris pH 7.5, 37° C.
Experimental: A 20 mM stock of conjugate was prepared in 100% DMSO. The stocks were subsequently diluted in 100 mM Tris, pH 7.5, to yield an intermediate dilution of 500 μM followed by an additional dilution of 1:5 in 100 mM Tris, pH 7.5 to give a final concentration of 100 μM of conjugate. 100 mM glutathione was prepared immediately prior to use in H2O and diluted 1:10 in challenge samples for a final glutathione challenge concentration of 10 mM. Samples were mixed by inversion and incubated at 37° C. for up to 24 hrs. […]
(§1) Samples were thawed and extracted as follows: 8 μL of 25% phosphoric acid followed by 117 μL of 100% acetonitrile/0.1% TFA were added to each sample, mixed and centrifuged at 13000×G for 10 minutes. The supernatant was pipetted into 0.2 mL HPLC vials and placed on a Perkin Elmer Flexar HPLC autosampler. The following table summarizes HPLC conditions:
Data was analyzed by calculating the percentage reduction of compound (area of retention time peak of […] conjugate/area of retention time peak of conjugate at time 0)×100.

[3] = Plasma stability studies; type: in vitro ADME; details: rat plasma, 100 μM conjugate, 37° C.
Experimental: A 20 mM stock of conjugate was prepared in 100% DMSO. The stocks were subsequently diluted in 100 mM Tris, pH 7.5 to yield an intermediate dilution of 500 μM and then diluted 1:5 directly into rat plasma to yield a final concentration of 100 μM of conjugate. Samples were mixed by inversion and incubated at 37° C. for up to 24 h. 50 μL samples were aliquoted into siliconized microfuge tubes at time 0, 4, and 24 h and immediately frozen at −80° C.
as §1, with “100% Acetonitrile/0.1%” for “100% acetonitrile/0.1%”, “TFA was” for “TFA were”
Data was analyzed by calculating the percentage reduction of compound (area of retention time peak of incubated conjugate/area of retention time peak of conjugate at time 0)×100.

Row | SMILES | IC50 [1] | remaining at 4 h, 100 µM [2] | remaining at 24 h, 100 µM [2] | remaining at 4 h, 100 µM [3] | remaining at 24 h, 100 µM [3] | degradation on glutathione exposure (FIG. 10) ([2]; 10 mM glutathione over 16 h)
1 | CC[C@@]1(O)C(=O)OCc2c1cc1n(c2=O)Cc2c-1nc1cc(F)c(C)c3c1c2[C@@H](NC(=O)OC[C@H](SSC[C@H](NC(=O)[C@H](Cc1c[nH]c2ccccc12)NC(=O)[C@H](CC(C)C)NC(=O)[C@H](CC(C)C)NC(=O)[C@H](CC(=O)O)NC(=O)[C@H](CC(C)C)NC(=O)[C@H](CC(C)C)NC(=O)[C@H](CC(C)C)NC(=O)[C@@H](NC(=O)[C@H](CC(=O)O)NC(=O)[C@@H](NC(=O)[C@@H]1CCCN1C(=O)[C@H](Cc1ccccc1)NC(=O)[C@H](CC(C)C)NC(=O)[C@H](CC(C)C)NC(=O)[C@H](CC(=O)O)NC(=O)[C@H](CC(C)C)NC(=O)[C@H](Cc1ccc(O)cc1)NC(=O)[C@H](C)NC(=O)[C@H](CCCNC(=N)N)NC(=O)[C@H](Cc1c[nH]c2ccccc12)NC(=O)[C@@H]1CCCN1C(=O)[C@H](CC(N)=O)NC(=O)[C@H](CCC(N)=O)NC(=O)[C@H](CC(=O)O)NC(=O)[C@H](CC(=O)O)NC(=O)[C@H](C)N)[C@@H](C)O)[C@@H](C)O)C(=O)NCC(=O)O)C(C)C)CC3 [Compound 28] | 1.1 nM | 40.5% | 0% | 106% | 106% | 
2 | CC[C@@]1(O)C(=O)OCc2c1cc1n(c2=O)Cc2c-1nc1cc(F)c(C)c3c1c2[C@@H](NC(=O)O[C@@H]1COC[C@H]1SSC[C@H](NC(=O)[C@H](Cc1c[nH]c2ccccc12)NC(=O)[C@H](CC(C)C)NC(=O)[C@H](CC(C)C)NC(=O)[C@H](CC(=O)O)NC(=O)[C@H](CC(C)C)NC(=O)[C@H](CC(C)C)NC(=O)[C@H](CC(C)C)NC(=O)[C@@H](NC(=O)[C@H](CC(=O)O)NC(=O)[C@@H](NC(=O)[C@@H]1CCCN1C(=O)[C@H](Cc1ccccc1)NC(=O)[C@H](CC(C)C)NC(=O)[C@H](CC(C)C)NC(=O)[C@H](CC(=O)O)NC(=O)[C@H](CC(C)C)NC(=O)[C@H](Cc1ccc(O)cc1)NC(=O)[C@H](C)NC(=O)[C@H](CCCNC(=N)N)NC(=O)[C@H](Cc1c[nH]c2ccccc12)NC(=O)[C@@H]1CCCN1C(=O)[C@H](CC(N)=O)NC(=O)[C@H](CCC(N)=O)NC(=O)[C@H](CC(=O)O)NC(=O)[C@H](CC(=O)O)NC(=O)[C@H](C)N)[C@@H](C)O)[C@@H](C)O)C(=O)NCC(=O)O)CC3 [Compound 16] | 1.7 nM | 3.4% | 2% | 116% | 106% | 
3 | CC[C@@]1(O)C(=O)OCc2c1cc1n(c2=O)Cc2c-1nc1cc(F)c(C)c3c1c2[C@@H](NC(=O)OC[C@@H](SSC[C@H](NC(=O)[C@H](Cc1c[nH]c2ccccc12)NC(=O)[C@H](CC(C)C)NC(=O)[C@H](CC(C)C)NC(=O)[C@H](CC(=O)O)NC(=O)[C@H](CC(C)C)NC(=O)[C@H](CC(C)C)NC(=O)[C@H](CC(C)C)NC(=O)[C@@H](NC(=O)[C@H](CC(=O)O)NC(=O)[C@@H](NC(=O)[C@@H]1CCCN1C(=O)[C@H](Cc1ccccc1)NC(=O)[C@H](CC(C)C)NC(=O)[C@H](CC(C)C)NC(=O)[C@H](CC(=O)O)NC(=O)[C@H](CC(C)C)NC(=O)[C@H](Cc1ccc(O)cc1)NC(=O)[C@H](C)NC(=O)[C@H](CCCNC(=N)N)NC(=O)[C@H](Cc1c[nH]c2ccccc12)NC(=O)[C@@H]1CCCN1C(=O)[C@H](CC(N)=O)NC(=O)[C@H](CCC(N)=O)NC(=O)[C@H](CC(=O)O)NC(=O)[C@H](CC(=O)O)NC(=O)[C@H](C)N)[C@@H](C)O)[C@@H](C)O)C(=O)NCC(=O)O)C(C)C)CC3 [Compound 27] | 0.7 nM | 18% | 0% | 117% | 109% | 
4 | CC[C@@]1(O)C(=O)OCc2c1cc1n(c2=O)Cc2c-1nc1cc(F)c(C)c3c1c2[C@@H](NC(=O)O[C@@H]1CCCCC[C@H]1SSC[C@H](NC(=O)[C@H](Cc1c[nH]c2ccccc12)NC(=O)[C@H](CC(C)C)NC(=O)[C@H](CC(C)C)NC(=O)[C@H](CC(=O)O)NC(=O)[C@H](CC(C)C)NC(=O)[C@H](CC(C)C)NC(=O)[C@H](CC(C)C)NC(=O)[C@@H](NC(=O)[C@H](CC(=O)O)NC(=O)[C@@H](NC(=O)[C@@H]1CCCN1C(=O)[C@H](Cc1ccccc1)NC(=O)[C@H](CC(C)C)NC(=O)[C@H](CC(C)C)NC(=O)[C@H](CC(=O)O)NC(=O)[C@H](CC(C)C)NC(=O)[C@H](Cc1ccc(O)cc1)NC(=O)[C@H](C)NC(=O)[C@H](CCCNC(=N)N)NC(=O)[C@H](Cc1c[nH]c2ccccc12)NC(=O)[C@@H]1CCCN1C(=O)[C@H](CC(N)=O)NC(=O)[C@H](CCC(N)=O)NC(=O)[C@H](CC(=O)O)NC(=O)[C@H](CC(=O)O)NC(=O)[C@H](C)N)[C@@H](C)O)[C@@H](C)O)C(=O)NCC(=O)O)CC3 [Compound 22] | 5.9 nM | 65.8% | 12.3% | 106% | 105% | 
5 | CC[C@@]1(O)C(=O)OCc2c1cc1n(c2=O)Cc2c-1nc1cc(F)c(C)c3c1c2[C@@H](NC(=O)CCSSC[C@H](NC(=O)[C@H](Cc1c[nH]c2ccccc12)NC(=O)[C@H](CC(C)C)NC(=O)[C@H](CC(C)C)NC(=O)[C@H](CC(=O)O)NC(=O)[C@H](CC(C)C)NC(=O)[C@H](CC(C)C)NC(=O)[C@H](CC(C)C)NC(=O)[C@@H](NC(=O)[C@H](CC(=O)O)NC(=O)[C@@H](NC(=O)[C@@H]1CCCN1C(=O)[C@H](Cc1ccccc1)NC(=O)[C@H](CC(C)C)NC(=O)[C@H](CC(C)C)NC(=O)[C@H](CC(=O)O)NC(=O)[C@H](CC(C)C)NC(=O)[C@H](Cc1ccc(O)cc1)NC(=O)[C@H](C)NC(=O)[C@H](CCCNC(=N)N)NC(=O)[C@H](Cc1c[nH]c2ccccc12)NC(=O)[C@@H]1CCCN1C(=O)[C@H](CC(N)=O)NC(=O)[C@H](CCC(N)=O)NC(=O)[C@H](CC(=O)O)NC(=O)[C@H](CC(=O)O)NC(=O)[C@H](C)N)[C@@H](C)O)[C@@H](C)O)C(=O)NCC(=O)O)CC3 [Compound 29] | 69 nM | 3.1% | 5.9% | 116% | 110% | released much faster than Compound 11
6 | CC[C@@]1(O)C(=O)OCc2c1cc1n(c2=O)Cc2c-1nc1cc(F)c(C)c3c1c2[C@@H](NC(=O)O[C@@H]1CCc2ccccc2[C@H]1SSC[C@H](NC(=O)[C@H](Cc1c[nH]c2ccccc12)NC(=O)[C@H](CC(C)C)NC(=O)[C@H](CC(C)C)NC(=O)[C@H](CC(=O)O)NC(=O)[C@H](CC(C)C)NC(=O)[C@H](CC(C)C)NC(=O)[C@H](CC(C)C)NC(=O)[C@@H](NC(=O)[C@H](CC(=O)O)NC(=O)[C@@H](NC(=O)[C@@H]1CCCN1C(=O)[C@H](Cc1ccccc1)NC(=O)[C@H](CC(C)C)NC(=O)[C@H](CC(C)C)NC(=O)[C@H](CC(=O)O)NC(=O)[C@H](CC(C)C)NC(=O)[C@H](Cc1ccc(O)cc1)NC(=O)[C@H](C)NC(=O)[C@H](CCCNC(=N)N)NC(=O)[C@H](Cc1c[nH]c2ccccc12)NC(=O)[C@@H]1CCCN1C(=O)[C@H](CC(N)=O)NC(=O)[C@H](CCC(N)=O)NC(=O)[C@H](CC(=O)O)NC(=O)[C@H](CC(=O)O)NC(=O)[C@H](C)N)[C@@H](C)O)[C@@H](C)O)C(=O)NCC(=O)O)CC3 [Compound 25] | 2.9 nM | 42% | 4.1% | 103% | 104% | 
